Laboratory results reported in article PMC5065051, “Genetic and Biochemical Approaches for In Vivo and In Vitro Assessment of Protein Oligomerization: The Ryanodine Receptor Case Study” (Journal of Visualized Experiments : JoVE, 2016).

B1: RyR2 N-terminus domain (residues 1 - 906), cMyc-tagged (BT4L) or HA-tagged (AD4L), expressed in HEK293 (domain or fragment, human, UniProt Q92736 1-906, looked up)
chain: MADGGEGEDEIQFLRTDDEVVLQCTATIHKEQQKLCLAAEGFGNRLCFLESTSNSKNVPPDLSICTFVLEQSLSVRALQEMLANTVEKSEGQVDVEKWKFMMKTAQGGGHRTLLYGHAILLRHSYSGMYLCCLSTSRSSTDKLAFDVGLQEDTTGEACWWTIHPASKQRSEGEKVRVGDDLILVSVSSERYLHLSYGNGSLHVDAAFQQTLWSVAPISSGSEAAQGYLIGGDVLRLLHGHMDECLTVPSGEHGEEQRRTVHYEGGAVSVHARSLWRLETLRVAWSGSHIRWGQPFRLRHVTTGKYLSLMEDKNLLLMDKEKADVKSTAFTFRSSKEKLDVGVRKEVDGMGTSEIKYGDSVCYIQHVDTGLWLTYQSVDVKSVRMGSIQRKAIMHHEGHMDDGISLSRSQHEESRTARVIRSTVFLFNRFIRGLDALSKKAKASTVDLPIESVSLSLQDLIGYFHPPDEHLEHEDKQNRLRALKNRQNLFQEEGMINLVLECIDRLHVYSSAAHFADVAGREAGESWKSILNSLYELLAALIRGNRKNCAQFSGSLDWLISRLERLEASSGILEVLHCVLVESPEALNIIKEGHIKSIISLLDKHGRNHKVLDVLCSLCVCHGVAVRSNQHLICDNLLPGRDLLLQTRLVNHVSSMRPNIFLGVSEGSAQYKKWYYELMVDHTEPFVTAEATHLRVGWASTEGYSPYPGGGEEWGGNGVGDDLFSYGFDGLHLWSGCIARTVSSPNQHLLRTDDVISCCLDLSAPSISFRINGQPVQGMFENFNIDGLFFPVVSFSAGIKVRFLLGGRHGEFKFLPPPGYAPCYEAVLPKEKLKVEHSREYKQERTYTRDLLGPTVSLTQAAFTPIPVDTSQIVLPPHLERIREKLAENIHELWVMNKIELGWQYGP
notes: ryanodine receptor 2 (RyR2), human, residues 1-906; Two copies of the same stretch, each with ONE tag: in the co-IP cMyc-BT4L and HA-AD4L were co-expressed; in the cross-linking cMyc-BT4L was expressed alone; also called cMyc-BT4L; source: HEK293, transiently transfected (calcium phosphate), in lysate or homogenate

Tests used:
[1] = biological target: BT8, RyR2 extreme C-terminal domain (bait) (human); assay: two-hybrid; GAL4 system in yeast; quantitative liquid culture β-Gal assay (ONPG), 30 °C; normalized against the positive control pVA3 + pTD1
[2] = biological target: the molecule itself; assay: cross-linking; glutaraldehyde (0.0025% v/v, 0-60 min, RT) on HEK293 cell homogenate treated with dithiothreitol; SDS-PAGE and blot with Ab^cMyc

Molecule | β-Gal activity, percent of the positive control (pVA3 + pTD1) [1] [%] | stoichiometry N [2]
RyR2 N-terminal fragment (RyR2 residues 1 - 906), GAL4 fusions for yeast two-hybrid (from UniProt Q92736 1-906) (domain or fragment) | < 10 | –
B1 | – | 4
